Experimental data: patent publication US20120276000A1

Target: human CLEC14A (endogenous, in HUVECs) (human) (UniProt Q86T13)
Experiment: cell-based or functional assay

Chain of UniProt Q86T13 (Q86T13 22-490): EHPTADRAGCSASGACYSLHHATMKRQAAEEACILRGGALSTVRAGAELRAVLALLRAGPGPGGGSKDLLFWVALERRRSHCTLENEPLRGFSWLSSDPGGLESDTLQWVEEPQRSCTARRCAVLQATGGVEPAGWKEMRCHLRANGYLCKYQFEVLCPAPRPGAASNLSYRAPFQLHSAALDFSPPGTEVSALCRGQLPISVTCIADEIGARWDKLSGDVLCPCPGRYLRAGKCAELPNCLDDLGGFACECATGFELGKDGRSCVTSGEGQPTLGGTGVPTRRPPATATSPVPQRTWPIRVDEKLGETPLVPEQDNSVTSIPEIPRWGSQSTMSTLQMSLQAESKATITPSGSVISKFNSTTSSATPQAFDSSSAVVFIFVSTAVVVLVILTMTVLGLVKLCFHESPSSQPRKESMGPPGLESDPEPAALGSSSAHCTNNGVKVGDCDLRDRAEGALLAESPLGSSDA

wound area remaining open at 12 h, HUVEC scratch wound healing assay, 10 µg/ml antibody: 25%
B1: anti-CLEC14A monoclonal antibody CRT-3 (antibody, from another filing, IgG1, V domains shown)
VH: EVQLQQSGTVLARPGASVKMSCKASGYTFTSYWMHWVKQRPGQGLEWIGAIYPGNSDTSYNQKFKGKAKLTAVTSTSTAYMELSSLTNEDSAVFYCTHYYGSDYAMDYWGQGTSVTV
VL: QIVLTQSPAIMSASLGERVTMTCTASSSVSSSYLHWYQQKPGSSPKLWIYSTSNLASGVPARFSGSGSGTSYSLTISSMEAEDAATYYCHQYHRSPRTFGGGTKLEIKR
